According to US20230312755A1 (ANGITIA, published 2023):
Ends that are not written are not given here.

Tests used:
human Sclerostin [1] = biological target: T1, human Sclerostin (human, UniProt Q9BQB4 24-213); assay: BLI (Gator), antibody on anti-hFc biosensor, antigen as analyte; koff at LOD, KD estimated
T1 construct: Analyte of the BLI assays and the protein added in the reporter assays; also called hSclerostin; SOST
T1 sequence: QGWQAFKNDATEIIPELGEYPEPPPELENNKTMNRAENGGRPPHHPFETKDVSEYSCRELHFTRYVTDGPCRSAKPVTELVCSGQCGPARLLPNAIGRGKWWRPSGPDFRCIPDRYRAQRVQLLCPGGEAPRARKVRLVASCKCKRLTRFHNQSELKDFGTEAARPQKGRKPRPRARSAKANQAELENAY
Procedure: (§1) Binding kinetics and affinities of anti-Sclerostin×anti-DKK1 and anti-Sclerostin×anti-RANKL bispecific antibodies were measured with Gator (Probe Life) bio-layer interferometry (BLI). Antibodies were immobilized on an anti-hFc biosensor, using a 5 μg/ml solution. Serial dilutions of sclerostin (from 1 μg/ml), DKK1 (from 2 μg/ml), or RANKL (from 4 μg/ml) by two folds in kinetics buffer (PBS, pH 7.4, 0.05% Tween-20, 0.2% BSA) were used as the analytes. Affinity (KD) and kinetic parameters (Kₒₙ and Koff) were calculated from a global fit (1:1) of the data using the Gator software.

human RANKL [2] = biological target: T2, human RANKL (human, UniProt O14788 140-317, limits assumed); assay: as above
T2 construct: Analyte in BLI; also called hRANKL; TNFSF11
T2 sequence (looked up): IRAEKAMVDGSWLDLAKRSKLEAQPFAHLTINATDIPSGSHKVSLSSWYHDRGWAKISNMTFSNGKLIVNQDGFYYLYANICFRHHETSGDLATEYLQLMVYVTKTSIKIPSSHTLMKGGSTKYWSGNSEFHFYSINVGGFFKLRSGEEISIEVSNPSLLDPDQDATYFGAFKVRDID
Procedure: as §1

human Sclerostin [3] = biological target: T1, human Sclerostin; assay: BLI (Gator), antibody on anti-hFc biosensor, antigen as analyte, 1:1 global fit
Procedure: as §1

human RANKL [4] = biological target: T2, human RANKL; assay: as above
Procedure: as §1

human Sclerostin [5] = biological target: T1, human Sclerostin; assay: BLI (Gator), antibody on anti-hFc biosensor, Sclerostin as analyte, 1:1 global fit
Procedure: (§2) The binding affinity of humanized anti-Sclerostin antibodies to human and cynomolgus monkey Sclerostin were determined with bio-layer interferometry using a Gator instrument (Probe Life). Antibodies were immobilized on an anti-hFc biosensor, using a […]. Serial dilutions of human Sclerostin and cynomolgus monkey Sclerostin from 4 μg/ml by two folds in kinetics buffer (PBS, pH 7.4, 0.05% Tween-20, 0.2% BSA, 10 μM biotin) were used as the analytes. Affinity (KD) and kinetic parameters (Kₒₙ and Koff) were calculated from a global fit (1:1) of the data using the Gator software.

[6] = biological target: T3, cynomolgus monkey Sclerostin (cynomolgus monkey, UniProt Q9BG78 24-213 (Chlorocebus aethiops entry)); assay: as above
T3 chain: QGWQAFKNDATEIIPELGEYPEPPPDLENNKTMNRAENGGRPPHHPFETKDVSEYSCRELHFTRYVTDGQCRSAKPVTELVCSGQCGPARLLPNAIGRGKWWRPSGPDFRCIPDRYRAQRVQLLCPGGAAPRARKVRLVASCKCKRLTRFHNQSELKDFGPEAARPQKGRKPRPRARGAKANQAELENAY
Procedure: as §2

pep5 = biological target: T4, pep5 (human, also: biotinylated (NHS-biotin), site not given here); assay: BLI (Gator), biotinylated peptide on streptavidin biosensor, 93B1B7 5 µg/ml as analyte
T4 construct: Chemically synthesized peptide of the second loop of human Sclerostin, biotinylated and immobilized on a streptavidin biosensor
T4 peptide: PNAIGRGKWWR
Procedure: (§3) The peptides were biotinylated (NHS-Biotin Reagents, Thermo, #21343) and immobilized on Streptavidin biosensor, using a 0.5 μg/ml solution.

Pep1 = biological target: T5, Pep1 (human, biotinylated (NHS-Biotin Reagents)); assay: as above
T5 construct: Chemically synthesized peptide of the second loop of human Sclerostin, biotinylated and immobilized on a streptavidin biosensor; also called hScl 110-133
T5 peptide: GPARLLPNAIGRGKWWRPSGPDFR
Procedure: as §3

pep6 = biological target: T6, pep6 (human, also: biotinylated (NHS-biotin), site not given here); assay: as above
T6 construct: Chemically synthesized peptide of the second loop of human Sclerostin, biotinylated and immobilized on a streptavidin biosensor
T6 peptide: IGRGKWWRPSGP
Procedure: as §3

human Sclerostin [7] = biological target: T1, human Sclerostin; assay: cell-based or functional assay
Pep4 = biological target: T7, Pep4 (also: biotinylated (NHS-biotin), site not given here); assay: BLI (Gator), biotinylated peptide on streptavidin biosensor, 93B1B7 as analyte
T7 construct: also called Pep4 hSOST
T7 peptide: RLLPNAIGRGK
Procedure: as §3

Pep9 = biological target: T8, Pep9 (also: biotinylated (NHS-biotin), site not given here); assay: as above
T8 construct: also called Pep9 mSOST
T8 peptide: IGRVKWWRPNGP
Procedure: as §3

Pep3 = biological target: T9, Pep3 (also: biotinylated (NHS-biotin), site not given here); assay: as above
T9 construct: also called Pep3 h/mSOST
T9 peptide: GPARLLPNAIGR
Procedure: as §3

Pep10 = biological target: T10, Pep10 (also: biotinylated (NHS-biotin), site not given here); assay: as above
T10 construct: also called Pep 10 mSOST
T10 peptide: KWWRPNGPDFR
Procedure: as §3

Pep8 = biological target: T11, Pep8 (also: biotinylated (NHS-biotin), site not given here); assay: as above
T11 construct: also called Pep8 mSOST
T11 peptide: PNAIGRVKWWR
Procedure: as §3

Pep7 = biological target: T12, Pep7 (also: biotinylated (NHS-biotin), site not given here); assay: as above
T12 construct: also called Pep7 hSOST
T12 peptide: KWWRPSGPDFR
Procedure: as §3

Pep2 = biological target: T13, Pep2 (biotinylated (NHS-biotin), site not given); assay: as above
T13 construct: also called Pep2 mSOST
T13 peptide: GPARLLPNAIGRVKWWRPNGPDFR
Procedure: as §3

[8] = biological target: T14, His-tagged human Sclerostin (NCBI reference No. NP_079513.1) (human, UniProt Q9BQB4 24-213); assay: ELISA, plate coated with His-tagged human Sclerostin
T14 construct: also called mouse His-tagged human Sclerostin; not shown: His tag
T14 sequence: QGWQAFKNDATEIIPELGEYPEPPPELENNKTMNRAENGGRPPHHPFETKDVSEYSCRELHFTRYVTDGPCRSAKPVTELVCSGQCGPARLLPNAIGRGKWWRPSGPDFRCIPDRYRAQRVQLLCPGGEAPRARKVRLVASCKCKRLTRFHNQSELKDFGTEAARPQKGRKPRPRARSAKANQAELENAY
Procedure: The ability of antibodies to specifically bind Sclerostin was determined by an ELISA capture assay. Plates were coated, in a 96-well half-area, with 100 μl/well of mouse His-tagged human Sclerostin (NCBI reference No. is NP_079513.1) [[…]], in coating buffer (PBS, pH 7.4), and incubated at RT for one hour, or 4° C. overnight. The plates were washed once with 100 μl/well of washing solution (PBS containing 0.2% Tween20, BIO-RAD). Plates were then incubated in blocking solution (PBS containing 1% BSA, 1% goat serum and 0.5% Tween20; 100 μl/well) for one hour at room temperature (RT). Anti-Sclerostin antibodies at various concentrations (1000, 333.3, 111.1, 37.0, 12.3, 4.1, 1.4, 0.5, 0.15, 0.05 ng/ml), a positive control antibody Romosozumab or non-Sclerostin related IgG (human or rat IgG, negative control), were then added to each well in 20 μl/well of blocking solution, and plates were incubated at RT for one hour. NeutrAvidin HRP (Pierce, Catalog #31001) diluted in blocking solution (1:50,000 dilution) was added at to each well ([…]), and the plates were incubated at RT for one hour prior to three washes with […] of washing solution. SuperSignal ELISA Femto (ThermoFisher Scientific, Catalog #37074) working solution was added to the plates ([…]), and the signal was read using a luminometer at 425 nm.

B1: BAP0069 (bispecific antibody, human IgG4 S228P, kappa, F234A L235A)
heavy: EVQLVQSGAEVKKPGASVKVSCKASGYTFTDYEIHWVRQAPGKGLEWMGAIDPETGGTAYNQKFKGRVTMTTDTSTSTAYMELRSLRSDDTAVYYCYSYDYVTYWGQGTTVTVSSASTKGPSVFPLAPCSRSTSESTAALGCLVKDYFPEPVTVSWNSGALTSGVHTFPAVLQSSGLYSLSSVVTVPSSSLGTKTYTCNVDHKPSNTKVDKRVESKYGPPCPPCPAPEAAGGPSVFLFPPKPKDTLMISRTPEVTCVVVDVSQEDPEVQFNWYVDGVEVHNAKTKPREEQFNSTYRVVSVLTVLHQDWLNGKEYKCKVSNKGLPSSIEKTISKAKGQPREPQVYTLPPSQEEMTKNQVSLTCLVKGFYPSDIAVEWESNGQPENNYKTTPPVLDSDGSFFLYSKLTVDKSRWQEGNVFSCSVMHEALHNHYTQKSLSLSPGKGGGGSGGGGSGGGGSEIVLTQSPGTLSLSPGERATLSCRASQSVRGRYLAWYQQKPGQAPRLLIYGASSRATGIPDRFSGSGSGTDFTLTISRLEPEDFAVFYCQQYGSSPRTFGCGTKVEIKGGGGSGGGGSGGGGSGGGGSEVQLLESGGGLVQPGGSLRLSCAASGFTFSSYAMSWVRQAPGKCLEWVSGITGSGGSTYYADSVKGRFTISRDNSKNTLYLQMNSLRAEDTAVYYCAKDPGTTVIMSWFDPWGQGTLVTVSA
light: DVVMTQSPLSLSVSPGERASLSCKSSQSLLYSDGRTYLNWYLQKPGQSPQRLIYLVSKLDSGVPDRFSGSGSGTDFTLKISRVQSEDVGVYYCWQGTHLPHTFGGGTKVEIKRTVAAPSVFIFPPSDEQLKSGTASVVCLLNNFYPREAKVQWKVDNALQSGNSQESVTEQDSKDSTYSLSSTLTLSKADYEKHKVYACEVTHQGLSSPVTKSFNRGEC
notes: Anti-RANKL scFv (VL-VH, Denosumab) fused to the C-terminus of the heavy chains of the anti-Sclerostin full length antibody (hAb-1)
Kd (human Sclerostin [1]): ~0.01 nM
Kd (human RANKL [2]): ~0.01 nM
kon (human Sclerostin [3]): 757000 M⁻¹ s⁻¹
kon (human RANKL [4]): 86700 M⁻¹ s⁻¹

B2: 93B1B7 (antibody, V domains shown)
VH: QAQLQQSGAELVRPGASVTLSCKASGYTFTDYEIHWMKQTPVHGLEWIGAIDPETGGTAYNQKFKGKAILTADRSSSTAYLELRSLTSEDSAVYYCYSYDYVTYWGQGTLVTVSA
VL: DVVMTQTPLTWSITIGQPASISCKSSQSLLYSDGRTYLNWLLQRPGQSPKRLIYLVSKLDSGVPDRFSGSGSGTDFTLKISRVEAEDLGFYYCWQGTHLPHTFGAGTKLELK
notes: Murine monoclonal antibody from a hybridoma; also called mAb 93B1B7; Antibody 93B1B7
Kd (human Sclerostin [5]): 0.051 nM
koff (human Sclerostin [5]): 8.4e-05 s⁻¹
kon (human Sclerostin [5]): 1e+06 M⁻¹ s⁻¹
Kd [6]: 0.018 nM
koff [6]: 6.5e-05 s⁻¹
kon [6]: 2.2e+06 M⁻¹ s⁻¹
binding result (pep5): binds
binding result (Pep1): binds
binding result (pep6): binds
EC50, Sclerostin-neutralisation activity in HEK293/TCF/LEF/Wnt1 cells (luciferase reporter) (human Sclerostin [7]): 57.9 nM
binding result (Pep4): no binding (tested: 5 µg/ml)
binding result (Pep9): no binding (tested: 5 µg/ml)
binding result (Pep3): no binding (tested: 5 µg/ml)
binding result (Pep10): no binding (tested: 5 µg/ml)
binding result (Pep8): no binding (tested: 5 µg/ml)
binding result (Pep7): no binding (tested: 5 µg/ml)
binding result (Pep2): no binding (tested: 5 µg/ml)
EC50 [8]: 0.04 nM
